Measured values published in US12091454B2, “Humanized anti-human neurotensin receptor 1 antibodies and their uses” (DEVELOPMENT CENTER FOR BIOTECHNOLOGY, priority 2022, dated 2024).

Legend:
FaDu cells = experiment: In vitro cytotoxicity study (CELLTITER-GLO); assay type: cell-based, human; settings: 72 hours treatment, cell viability, read-out: Relative IC50
Procedure: Human head and neck cancer cell line FaDu was respectively grown in RPMI-1640 medium (ATCC® modification) supplemented with 10% fetal bovine serum. The FaDu cell lines were maintained in an atmosphere of 5% CO2 in a humidified 37° C. incubator. The day before treatment, cells were collected and seeded into 96-well plates (4,000 cells per well). Each treatment was performed in eight triplicate data points. After the treatment of 72 hours, cell viability was assessed by CELLTITER-GLO® kit (PROMEGA®) according to the manufacturer's instruction. At the end of the incubation, luminescence was measured using a SpectraMax i3x Multi Mode Detection Platform (MOLECULAR DEVICES®). Compound cytotoxicity was evaluated in comparison to cells treated with 0.05% PBS (ADCs) or 0.05% DMSO (toxic payload). IC50 values were calculated by fitting viability data with a four-parameter logistic equation using GRAPHPAD® prism 5.0 software.

[1] = tested on: FaDu human head and neck cancer xenograft; experiment: Xenograft model of anti-NTSR1 ADCs (head and neck cancer); assay type: in vivo, male NOD SCID mice
Procedure: The aim of this study was to evaluate the in vivo anti-tumor efficacy of αNTSR1 (AKT2) 4seco-DUBA, αNTSR1 (AKT2 Hu/Hu) 4seco-DUBA, and αNTSR1 (AKT2 Hu/Hd) 4seco-DUBA in FaDu human head and neck cancer xenograft model in male NOD SCID mice.
Formulations respectively comprising test article αNTSR1 (AKT2) 4seco-DUBA, test article αNTSR1 (AKT2 Hu/Hu) 4seco-DUBA, test article αNTSR1 (AKT2 Hu/Hd) 4seco-DUBA, and Hu IgG were formulated by diluting the stock with a 25 mM sodium citrate buffer (pH 6.5). […]
The FaDu cells were maintained in vitro as a monolayer culture in RPMI-1640 medium supplemented with 10% fetal bovine serum at 37° C. in an atmosphere of 5% CO2 in air. The tumor cells were routinely sub-cultured twice weekly by trypsin-EDTA treatment. The cells growing in an exponential growth phase were harvested and counted for tumor inoculation.
Male NOD SCID mice at age of 6-7 weeks were quarantined for one week. Five mice were housed in each cage. All animals were hosted in the animal facility with a 12-h light/12-h dark cycle at 19-25° C. Animals had free access to rodent pellet foods and water ad libitum.
FaDu cells were subcutaneously (SC) implanted (4×10^6 cells in 1:1 PBS/matrigel mixture at 0.1 mL per mouse) into the right flank of male NOD SCID mice. When the average tumor volume had reached about 200 mm^3, the mice were randomly divided into 7 groups (N=6 per group). Each of Hu IgG, αNTSR1 (AKT2) 4seco-DUBA (5 mg/kg), αNTSR1 (AKT2 Hu/Hu) 4seco-DUBA (5 mg/kg), and αNTSR1 (AKT2 Hu/Hd) 4seco-DUBA (5 mg/kg) was intravenously administered twice weekly for 3 weeks.
The tumor volumes, body weights, mortality, and signs of overt toxicity were monitored and recorded three times weekly for 28 days. Tumor volumes (mm^3) were measured three times per week using calipers and calculated according to the formula: Tumor Volume=(w^2×l)/2, where w=width and l=length in diameter (mm) of the tumor. The percentages of tumor growth inhibition (TGI) were calculated using the following formula: % TGI=[1−(T/C)]×100%, where T and C represent the mean tumor volumes of the treatment group and the control group, respectively. A TGI (%) value≥58% was considered as indicating significant anti-tumor activity. Animals were weighed three times weekly until the completion of the study.

B1: αNTSR1 (AKT2 Hu/Hd) 4seco-DUBA: antibody-drug conjugate of humanized antibody AKT2 HuHd with seco-DUBA payload (conjugate)
heavy chain: QVQLVQSGAEVKKPGASVKVSCKASGYAFTSSWIHWVRQAPGQGLEWMGQIRPNSGNTYYNEKFKVRVTMTRDTSTSTVYMELSSLRSEDTAVYYCARYHYGFDYWGQGTLVTVSS
light chain: DIQMTQSPSSLSASVGDRVTITCRSSQSIVHSNGNTYLEWYQQKPGKAPKLLIYKVSNRFSGVPSRFSGSGSGTDFTLTISSLQPEDFATYYCFQGAHLPWTFGQGTKVEIK
- IC50 (FaDu cells): 55 nM
- FaDu tumor growth ([1]; 5 mg/kg, Day 10 to Day 17): significantly reduced FaDu tumor growth
- TGI % (1-T/C) Day 0 ([1]; 5 mpk, IV, BIW × 3, Day 0): 0.0%
- TGI % (1-T/C) Day 3 ([1]; 5 mpk, IV, BIW × 3, Day 3): 6.6%
- TGI % (1-T/C) Day 5 ([1]; 5 mpk, IV, BIW × 3, Day 5): 29.8%
- TGI % (1-T/C) Day 7 ([1]; 5 mpk, IV, BIW × 3, Day 7): 56.1%
- TGI % (1-T/C) Day 10 ([1]; 5 mpk, IV, BIW × 3, Day 10): 60.9%
- TGI % (1-T/C) Day 12 ([1]; 5 mpk, IV, BIW × 3, Day 12): 62.7%
- TGI % (1-T/C) Day 14 ([1]; 5 mpk, IV, BIW × 3, Day 14): 65.2%
- TGI % (1-T/C) Day 17 ([1]; 5 mpk, IV, BIW × 3, Day 17): 76.6%
